Measured values: publication PMC9561280

Target: T1, Fur (Pseudomonas aeruginosa PA14) (UniProt Q03456)
T1 sequence: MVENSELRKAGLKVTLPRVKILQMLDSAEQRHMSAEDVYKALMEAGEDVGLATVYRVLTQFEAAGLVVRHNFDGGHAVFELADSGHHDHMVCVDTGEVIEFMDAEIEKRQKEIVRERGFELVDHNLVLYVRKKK
Assay: EMSA
Details: 25 mM Tris-HCl pH 7.5, 150 mM NaCl, 20 ul, 4 C 30 min; 10% PAGE in 0.5x TBE; no metal stated

CTGGTCGAGTCGATGATGGTGGCCGGGCGCTGAGGCCGGGTTTCCCTCTATAAAACGCCAGCGCTCGTCGCTGGCGTTTTCGTTTCCGCCTGTTCAATTGTCCGCCTCTATGGGGACCATGCTTGTCTTTTGCCAAGAAGAAAACAATAATCAATCTCATTATCGTCTGGTGAGGTTGCC (double strand) [PfagA (Ppa4471)]
binding: binds
